What all share (test): SPR (BIACORE), captured antibody, FcgR as analyte
A general note: Surface plasmon resonance follows binding to a sensor surface in real time, without labels.

Assay [1] has as its target T1, human FcγRIIaH extracellular domain, His-tagged (human, UniProt P12318 34-217).
T1 construct: also called human FcγRIIa (type H); FcgRIIaH; not shown: C-terminal His-tag
T1 sequence: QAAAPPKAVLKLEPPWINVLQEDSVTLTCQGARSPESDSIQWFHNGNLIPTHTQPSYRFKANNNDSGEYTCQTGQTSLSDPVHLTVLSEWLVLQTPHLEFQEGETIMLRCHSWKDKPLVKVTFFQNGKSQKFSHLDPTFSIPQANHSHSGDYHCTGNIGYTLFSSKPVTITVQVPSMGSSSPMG

Assay [2] concerns the target T2, cynomolgus monkey FcγRIIa1 extracellular domain, His-tagged (cynomolgus monkey).
T2 construct: also called cyno FcγRIIa1; cynoFcgRIIa1; not shown: C-terminal His-tag
T2 chain: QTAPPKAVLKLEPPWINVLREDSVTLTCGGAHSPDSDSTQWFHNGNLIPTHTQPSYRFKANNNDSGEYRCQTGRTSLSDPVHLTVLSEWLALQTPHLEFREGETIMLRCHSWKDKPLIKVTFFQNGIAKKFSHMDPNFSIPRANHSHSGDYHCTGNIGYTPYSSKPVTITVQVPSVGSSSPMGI

In assay [3] the target is T3, cynomolgus monkey FcγRIIa2 extracellular domain, His-tagged (cynomolgus monkey).
T3 construct: also called cyno FcγRIIa2; cynoFcgRIIa2; not shown: C-terminal His-tag
T3 chain: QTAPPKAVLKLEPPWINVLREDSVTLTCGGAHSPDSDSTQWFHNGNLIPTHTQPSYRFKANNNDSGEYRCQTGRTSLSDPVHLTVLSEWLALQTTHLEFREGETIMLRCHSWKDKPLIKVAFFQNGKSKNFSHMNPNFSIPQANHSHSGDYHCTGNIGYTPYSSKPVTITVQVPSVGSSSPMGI

Assay [4] deals with T4, human FcγRIIaR extracellular domain, His-tagged (human, UniProt P12318 34-217).
T4 construct: also called human FcγRIIa (type R); FcgRIIaR; not shown: C-terminal His-tag
T4 chain: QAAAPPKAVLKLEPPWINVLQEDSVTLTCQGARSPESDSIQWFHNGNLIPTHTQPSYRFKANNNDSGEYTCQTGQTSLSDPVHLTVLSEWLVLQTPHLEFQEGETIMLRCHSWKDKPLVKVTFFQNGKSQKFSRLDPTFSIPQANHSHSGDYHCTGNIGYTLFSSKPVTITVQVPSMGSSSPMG

Assay [5] concerns the target T5, human FcγRIIb extracellular domain, His-tagged (human, UniProt P31994 43-217).
T5 construct: also called FcgRIIb (human); not shown: C-terminal His-tag
T5 sequence: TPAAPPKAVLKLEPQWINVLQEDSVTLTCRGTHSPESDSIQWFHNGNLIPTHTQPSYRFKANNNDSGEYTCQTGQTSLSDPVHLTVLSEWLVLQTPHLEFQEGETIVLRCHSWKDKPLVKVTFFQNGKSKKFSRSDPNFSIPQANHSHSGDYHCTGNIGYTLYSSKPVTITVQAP

The target in assay [6] is T6, cynomolgus monkey FcγRIIa3 extracellular domain, His-tagged (cynomolgus monkey).
T6 construct: also called cyno FcγRIIa3; cynoFcgRIIa3; not shown: C-terminal His-tag
T6 chain: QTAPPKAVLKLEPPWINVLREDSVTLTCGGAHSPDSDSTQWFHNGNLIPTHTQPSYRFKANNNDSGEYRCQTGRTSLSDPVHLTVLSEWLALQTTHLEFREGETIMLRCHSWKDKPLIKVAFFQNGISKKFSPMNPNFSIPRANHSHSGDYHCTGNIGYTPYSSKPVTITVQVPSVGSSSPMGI

Assay [7] addresses T7, cynomolgus monkey FcγRIIb extracellular domain, His-tagged (cynomolgus monkey).
T7 construct: also called cyno FcγRIIb; cynoFcγRIIb; not shown: C-terminal His-tag
T7 chain: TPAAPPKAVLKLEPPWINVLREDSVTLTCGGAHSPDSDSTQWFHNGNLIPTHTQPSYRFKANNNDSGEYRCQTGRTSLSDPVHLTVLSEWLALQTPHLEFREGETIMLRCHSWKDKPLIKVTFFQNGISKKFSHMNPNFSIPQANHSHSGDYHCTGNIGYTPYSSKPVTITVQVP

For assay [8], the target named is T8, human FcγRIIIaV extracellular domain, His-tagged (human, UniProt P08637 17-208).
T8 construct: also called FcgRIIIaV; not shown: C-terminal His-tag

Assay [9] has as its target T9, cynomolgus monkey FcγRIIIaS extracellular domain, His-tagged (cynomolgus monkey, UniProt Q8SPW2 21-206 at identity 1.00)).
T9 construct: also called cyno FcγRIIIaS; cynoFcγRIIIaS; not shown: C-terminal His-tag
T9 chain: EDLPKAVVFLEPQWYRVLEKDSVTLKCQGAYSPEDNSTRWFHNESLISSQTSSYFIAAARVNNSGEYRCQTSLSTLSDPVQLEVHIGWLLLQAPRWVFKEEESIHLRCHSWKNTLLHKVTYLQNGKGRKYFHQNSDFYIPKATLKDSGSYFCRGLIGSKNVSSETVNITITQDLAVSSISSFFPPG

Kd data for two molecules are collected here from US20200317768A1 (published 2020).

A word on the Kd: it is a measure of binding affinity in units of concentration.

T8 sequence (P08637 17-208 F176V): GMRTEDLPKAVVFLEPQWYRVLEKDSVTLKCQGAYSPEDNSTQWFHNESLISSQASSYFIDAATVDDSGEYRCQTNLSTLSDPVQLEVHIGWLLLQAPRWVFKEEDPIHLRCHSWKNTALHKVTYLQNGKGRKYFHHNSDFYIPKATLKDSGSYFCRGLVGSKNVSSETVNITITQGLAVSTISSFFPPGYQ

B1: M103205H795-MY448/M103202L889-SK1 (antibody, human IgG1, kappa)
heavy: QVTLKESGPVLVKPTETLTLTCTVSGIDLSHDDISWVRQAPGKGLEWVGIISYAGSTYYASWAKGRLTISKDTSKNQVVLTMTNMDPVDTATYYCARGVPAYSHGGDLWGQGTLVTVSSASTKGPSVFPLAPSSKSTSGGTAALGCLVKDYFPEPVTVSWNSGALTSGVHTFPAVLQSSGLYSLSSVVTVPSSSLGTQTYICNVNHKPSNTKVDKKVEPKSCDKTHTCPPCPAKELLTGPSVFLFPPKPKDTLMISRTPEVTCVVVDVSDEDPEVKFNWYVDGVEVHNAKTKPREEQYNSTYRVVSVLTVLHQDWLNGKEYKCKVSNKALPKPIEKTISKAKGQPREPQVYTLPPSREEMTKNQVSLTCLVKGFYPSDIAVEWESNGQPENNYKTTPPVLDSDGSFFLYSKLTVDKSRWQQGNVFSCSVMHEALHNHYTQKSLSLSP
light: DIVMTQSPATLSLSPGERATLSCTSSQSVYHANWLSWFQQKPGQPPKLLIYWASTLAYGVPSRFSGSGSGTDFTLTISSLQPEDAATYYCAGGYGGGRYAFGQGTKVEIKRTVAAPSVFIFPPSDEQLKSGTASVVCLLNNFYPREAKVQWKVDNALQSGNSQESVTEQDSKDSTYSLSSTLTLSKADYEKHKVYACEVTHQGLSSPVTKSFNRGEC
notes: copies: 2 + 2
On to B1, for which the Kd in [1] is 0.93 µM; in assay [2] it was 9.6 µM; in assay [3], 7.5 µM; in assay [4], 2.2 µM; in assay [5] it was 8.4 µM; in assay [6] it was 21 µM. Also, the Kd in assay [7] was found to be 2.3 µM; in assay [8], 13 µM; in assay [9], 6.5 µM.

B2: M103205H795-MY459/M103202L889-SK1 (antibody, human IgG1, kappa)
heavy: QVTLKESGPVLVKPTETLTLTCTVSGIDLSHDDISWVRQAPGKGLEWVGIISYAGSTYYASWAKGRLTISKDTSKNQVVLTMTNMDPVDTATYYCARGVPAYSHGGDLWGQGTLVTVSSASTKGPSVFPLAPSSKSTSGGTAALGCLVKDYFPEPVTVSWNSGALTSGVHTFPAVLQSSGLYSLSSVVTVPSSSLGTQTYICNVNHKPSNTKVDKKVEPKSCDKTHTCPPCPDPELLTGPSVFLFPPKPKDTLMISRTPEVTCVVVDVSDEDPEVKFNWYVDGVEVHNAKTKPREEQYNSTYRVVSVLTVLHQDWLNGKEYKCKVSNKALPKPIEKTISKAKGQPREPQVYTLPPSREEMTKNQVSLTCLVKGFYPSDIAVEWESNGQPENNYKTTPPVLDSDGSFFLYSKLTVDKSRWQQGNVFSCSVMHEALHNHYTQKSLSLSP
light: DIVMTQSPATLSLSPGERATLSCTSSQSVYHANWLSWFQQKPGQPPKLLIYWASTLAYGVPSRFSGSGSGTDFTLTISSLQPEDAATYYCAGGYGGGRYAFGQGTKVEIKRTVAAPSVFIFPPSDEQLKSGTASVVCLLNNFYPREAKVQWKVDNALQSGNSQESVTEQDSKDSTYSLSSTLTLSKADYEKHKVYACEVTHQGLSSPVTKSFNRGEC
notes: copies: 2 + 2
Turning to B2, the Kd in [1] was found to be 0.39 µM; in [2], 5 µM; in [3], 4.7 µM; in [4], 0.56 µM; in [5] it was 2.5 µM; in [6], 7.5 µM. Besides, the Kd in assay [7] came to 1.1 µM; in assay [8], 8.7 µM; in assay [9], 3.2 µM.
